Assay results: patent publication US20080089862A1 (published 2008)

How the values were obtained:
Assay in all cases: ELISA
[1] = biological target: peptide aptamer NNS8/N5 (MBP with C-terminal peptide […]) (Escherichia coli (strain K12), UniProt P0AEX9 29-392 = MBP)
[2] = biological target: peptide aptamer NNS8/N7 (MBP with C-terminal peptide […]) (Escherichia coli (strain K12), UniProt P0AEX9 29-392 = MBP)
[3] = biological target: peptide aptamer NNS8/N8 (MBP with C-terminal peptide […]) (Escherichia coli (strain K12), UniProt P0AEX9 29-392 = MBP)
[4] = biological target: peptide aptamer NNS8/N10 (MBP with C-terminal peptide […]) (Escherichia coli (strain K12), UniProt P0AEX9 29-392 = MBP)
[5] = biological target: peptide aptamer NNS8/N21 (MBP with C-terminal peptide […]) (Escherichia coli (strain K12), UniProt P0AEX9 29-392 = MBP)
[6] = biological target: peptide aptamer NNS8/N22 (MBP with C-terminal peptide […]) (Escherichia coli (strain K12), UniProt P0AEX9 29-392 = MBP)
[7] = biological target: peptide aptamer NNS8/N23 (MBP with C-terminal peptide […]) (Escherichia coli (strain K12), UniProt P0AEX9 29-392 = MBP)
[8] = biological target: peptide aptamer RB13 (MBP with C-terminal peptide […]) (Escherichia coli (strain K12), UniProt P0AEX9 29-392 = MBP)
[9] = biological target: peptide aptamer RB15 (MBP with C-terminal peptide […]) (Escherichia coli (strain K12), UniProt P0AEX9 29-392 = MBP)
[10] = biological target: peptide aptamer RB16 (MBP with C-terminal peptide […]) (Escherichia coli (strain K12), UniProt P0AEX9 29-392 = MBP)
[11] = biological target: peptide aptamer RB17 (MBP with C-terminal peptide […]) (Escherichia coli (strain K12), UniProt P0AEX9 29-392 = MBP)
[12] = biological target: peptide aptamer RB18 (MBP with C-terminal peptide […]) (Escherichia coli (strain K12), UniProt P0AEX9 29-392 = MBP)

Measured: binding result

B1: single-chain NS3 protease (scNS3) (enzyme)
chain: GSVVIVGRIILSGRAPITAYSQQTRGLLGCIITSLTGRDKNQVEGEVQVVSTATQSFLATCVNGVCWTVYHGAGSKTLAAPKGPITQMYTNVDQDLVGWPKPPGARSLTPCTCGSSDLYLVTRHADVIPVRRRGDSRGSLLSPRPVSYLKGSSGGPLLCPFGHAVGIFRAAVCTRGVAKAVDFVPVESMETTMRS
notes: domain: NS4A cofactor peptide;domain: NS3 protease domain
no binding: all assays above
